According to paper PMC4046702 (Journal of inorganic biochemistry, 2013):

Biological target: HIF prolyl-4-hydroxylase 2 (PHD2), residues 178-426 (human, UniProt Q9GZT9 178-426)
Experiment: cell-based or functional assay

HIF prolyl-4-hydroxylase 2 (PHD2), residues 178-426, sequence (Q9GZT9 178-426): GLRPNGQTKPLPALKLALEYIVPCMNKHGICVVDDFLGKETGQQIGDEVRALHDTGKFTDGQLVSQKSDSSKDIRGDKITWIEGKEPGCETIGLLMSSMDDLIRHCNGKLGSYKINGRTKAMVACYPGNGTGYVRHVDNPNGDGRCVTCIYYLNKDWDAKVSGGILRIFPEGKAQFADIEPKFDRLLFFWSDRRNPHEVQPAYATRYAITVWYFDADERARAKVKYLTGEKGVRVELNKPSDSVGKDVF

kcat/KM of CODD hydroxylation by PHD2 (steady-state, MALDI-TOF), 0 mM NaCl | kcat/KM of CODD hydroxylation by PHD2 (steady-state, MALDI-TOF), + 100 mM NaCl | kcat/KM of NODD hydroxylation by PHD2 (steady-state, MALDI-TOF), 0 NaCl | kcat/KM of NODD hydroxylation by PHD2 (steady-state, MALDI-TOF), + 100 mM NaCl | Binder
16700 M⁻¹ s⁻¹ | 5000 M⁻¹ s⁻¹ | – | – | DLDLEALAPYIPADDDFQL [CODD peptide, HIF-1α 556-574 (M561A, M568A)]
– | – | 667 M⁻¹ s⁻¹ | 833 M⁻¹ s⁻¹ | DALTLLAPAAGDTIISLDYG [NODD peptide, HIF-1α 395-414 (F413Y)]
